Experimental findings from patent publication US20160355590A1 (UNIVERSITY OF SOUTHERN CALIFORNIA, published 2016) are described below.

Assay [1] has as its target human HLA-DR (allele not stated), on cells (human). The assay is described as follows: Scatchard plot analysis, normal B cells against tumor cell line.
For assay [2] the target is unchanged. The assay is described as follows: Scatchard plot analysis, avidity constant on tonsil lymphocytes.
Assay [3] has the same target. The assay is described as follows: Scatchard plot analysis, avidity constant on ARH-77 myeloma cells.

B1: Lym-2 monoclonal antibody (antibody, V domains shown)
VH: EVQLEESGGGLVQPGGSMKLSCVASGFTFSNYWMNWVRQSPEKGLEWVAEIRFKSHNYATHFAESVKGRFTISRDDSKSSVYLQMNNLRAEDTGIYYCTRRIGNSDYDWWYFDVWGAGTSVTVSS
VL: DIVMTQSHKFMSTSVGDRVSVTCKASQNVGNNVAWYQQKPGQSPKVLIYSASYRYSGVPDRFTGSGSGTDFTLTISNVQSEDLAEYFCQQYNTYPFTFGSGTKLEIK
notes: Mouse (BALB/c) hybridoma monoclonal antibody raised against CLL biopsy cell nuclei; detected with goat anti-mouse IgG
Turning to B1, the “fold decrease in binding affinity on normal B cells against tumor cells” value in assay [1] was 2 fold. The Ka stood at 1.23e+08 M⁻¹ in assay [2] and 2.33e+08 M⁻¹ in assay [3].

B2: Lym-1 monoclonal antibody (antibody, V domains shown)
VH: QLKESGPGLVAPSQSLSITCTISGFSLTSYGVHWVRQPPGKGLEWLVVIWSDGSTTYNSALKSRLSISKDNSKSQVFLKMNSLQTDDTAIYYCASHYGSTLAFASWGHGTLVTVSA
VL: DIQMTQSPASLSASVGETVTIICRASVNIYSYLAWYQQKQGKSPQLLVYNAKILAEGVPSRFSGSGSGTQFSLKINSLQPEDFGSYYCQHHYGTFTFGSGTKLEIK
notes: Mouse (BALB/c) hybridoma monoclonal antibody raised against Raji Burkitt's lymphoma cell nuclei; detected with goat anti-mouse IgG
For the molecule B2, the “fold decrease in binding affinity on normal B cells against tumor cells” value in assay [1] was 4 fold. Further, the Ka in assay [2] was 8.8e+07 M⁻¹.
